Earlier results on one substance are cited in patent publication US6051590A, “Immunosuppressant tricyclic compounds” (Merck & Co., Inc., priority 1999, dated 2000).

The target of the data set is T1, Kv 1.3 channels (CHO cells transfected with Kv 1.3) (Homo sapiens, UniProt P22001).
T1 construct: expressed in transfected cells; host or cells: CHO cells
The note with it: stated in the method for the reference blocker.

T1 sequence (P22001 whole entry): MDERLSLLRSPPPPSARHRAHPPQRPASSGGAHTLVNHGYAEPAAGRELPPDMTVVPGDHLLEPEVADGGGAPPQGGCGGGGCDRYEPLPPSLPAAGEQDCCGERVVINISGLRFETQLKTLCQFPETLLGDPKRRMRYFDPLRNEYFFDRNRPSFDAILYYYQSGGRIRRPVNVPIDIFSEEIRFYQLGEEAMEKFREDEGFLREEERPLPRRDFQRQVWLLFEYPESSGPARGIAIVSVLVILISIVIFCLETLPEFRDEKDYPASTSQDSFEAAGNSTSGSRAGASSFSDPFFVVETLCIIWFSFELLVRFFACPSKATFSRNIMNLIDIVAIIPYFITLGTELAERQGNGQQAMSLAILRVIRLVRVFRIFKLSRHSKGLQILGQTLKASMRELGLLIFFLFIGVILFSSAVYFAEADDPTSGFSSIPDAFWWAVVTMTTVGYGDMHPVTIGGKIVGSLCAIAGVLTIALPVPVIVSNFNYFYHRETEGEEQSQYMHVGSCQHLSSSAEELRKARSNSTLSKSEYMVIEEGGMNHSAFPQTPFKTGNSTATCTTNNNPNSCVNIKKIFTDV

One may read the IC50 as the concentration at which inhibition is half-maximal. Regarding “margatoxin (TIINVKCTSPKQCLPPCKAQFGQSAGAKCMNGKCKCYPH; UniProt P40755 1-39, looked up)”, the IC50 is 0.1 nM.
